From US20030158102A1 (MAYO FOUNDATION FOR MEDICAL EDUCATION AND RESEARCH, published 2003)

T1: human B7-H2 expressed on transfected CHO cells (human, UniProt O75144 19-302)
T1 construct: whole, on cells; also called B7-H2+ CHO cells
T1 sequence (looked up): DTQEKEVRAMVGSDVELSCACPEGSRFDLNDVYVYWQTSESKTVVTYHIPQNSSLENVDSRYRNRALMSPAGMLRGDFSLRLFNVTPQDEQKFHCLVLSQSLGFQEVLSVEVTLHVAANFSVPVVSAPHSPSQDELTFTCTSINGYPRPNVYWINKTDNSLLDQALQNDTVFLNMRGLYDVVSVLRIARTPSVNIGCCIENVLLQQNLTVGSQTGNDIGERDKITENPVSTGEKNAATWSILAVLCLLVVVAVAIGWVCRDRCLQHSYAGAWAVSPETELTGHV

T2: B7-H2mIg (extracellular domain of human B7-H2 linked to mouse IgG2a) (human; mouse, UniProt O75144 19-256)
T2 construct: extracellular domain; also called B7-H2Ig (mouse Ig); B7-H2Ig; not shown: mouse IgG2a
T2 sequence (looked up): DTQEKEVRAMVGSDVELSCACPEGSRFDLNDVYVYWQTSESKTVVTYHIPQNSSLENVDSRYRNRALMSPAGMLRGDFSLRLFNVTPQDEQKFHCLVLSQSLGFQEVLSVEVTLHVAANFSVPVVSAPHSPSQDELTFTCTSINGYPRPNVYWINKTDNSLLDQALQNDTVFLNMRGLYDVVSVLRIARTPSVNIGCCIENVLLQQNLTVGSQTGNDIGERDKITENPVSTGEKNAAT

T3: B7-H2Ig fusion protein (extracellular domain of human B7-H2 linked to an Ig portion); which one not said for … (human, UniProt O75144 19-256)
T3 sequence (looked up): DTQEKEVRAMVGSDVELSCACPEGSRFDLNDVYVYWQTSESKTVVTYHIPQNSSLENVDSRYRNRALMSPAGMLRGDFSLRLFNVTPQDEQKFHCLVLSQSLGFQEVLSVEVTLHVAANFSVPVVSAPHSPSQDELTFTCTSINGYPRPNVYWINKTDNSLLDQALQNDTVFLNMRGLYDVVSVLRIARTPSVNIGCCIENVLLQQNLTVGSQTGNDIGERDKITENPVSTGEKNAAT


Key:
[1] = molecular target: T1, human B7-H2 expressed on transfected …; assay: FACS on CHO cells transfected to express B7-H2
Experimental: Flow cytometry: B7-H2⁺ CHO cells (1×10⁵ cells per sample) were incubated on ice for 45 minutes, in a 1:1 mixture of fluorescence activated cell sorter (FACS) buffer (3% FBS and 0.02% NaN₃ in PBS):COS cell culture media containing ICOSIg fusion proteins. The B7-H2Ig fusion protein was used as a negative control. The cells were washed and further incubated with fluorescein isothiocyanate (FITC)-conjugated goat anti-human IgG (BioSource, Camarillo, Calif.) on ice for 30 minutes. Fluorescence was analyzed on a FACScaliber flow cytometer (Becton Dickinson, Mountain View, Calif.) with Cell Quest software (Becton Dickinson).
Mutagenesis analysis of the interaction between ICOS and B7-H2: The conserved regions within ICOS were subjected to mutagenesis in order to analyze their importance for binding to B7-H2. […] These constructs were expressed as ICOSIg hybrid proteins in COS cells, and the concentrations of the mutant proteins in serum-free culture media was determined by sandwich ELISA using anti-human Ig mAbs (BD Pharmingen). […] The ability of each ICOSIg mutant to bind to B7-H2 was determined by sandwich ELISA using B7-H2Ig (mouse Ig) and anti-human Ig mAb (FIG. 3A), and also by FACS analysis of ICOSIg binding to CHO cells that were transfected to express B7-H2. […]

[2] = molecular target: T2, B7-H2mIg (extracellular domain of human …); assay: capture ELISA, B7-H2mIg coated, anti-human IgG-HRP detection
Experimental: The ability of ICOSIg mutants to bind B7-H2 was measured using capture ELISA. Recombinant B7-H2mIg fusion proteins were coated on microtiter plates at 5 μg/ml and incubated overnight at 4° C. As described above, wells were blocked and then washed with PBS-Tween, and COS cell culture media was added and incubated for 2 hours at room temperature. HRP-conjugated goat anti-human IgG was added after washing, followed by TMB substrate and H₂SO₄, and absorbance was measured at 405 nm.
^a The regions, nucleotides, or amino acids in front of the slash were replaced with the corresponding regions, nucleotides, or amino acids after the slash. ^b Nucleotides are numbered from the A of the initiation codon. ^c Amino acids are numbered from the initiation methionine. ^d Specific binding activities were determined for each of the indicated fusion proteins. The concentration of a fusion protein required to give an arbitrary A405, which is the same as that of wild type ICOSIg, was determined from the linear region of binding curves and expressed as a percentage of specific binding activity of ICOSIg. Values represent the average of three determinations from each binding curve. The results are representative of three experiments.

[3] = molecular target: T1, human B7-H2 expressed on transfected …; assay: FACS on B7-H2+ CHO cells
[4] = molecular target: T3, B7-H2Ig fusion protein (extracellular …); assay: cell-based or functional assay

Row | Binder | binding result [1] | B7-H2 Binding (specific binding activity as percentage of ICOSIg) [2] | binding result [3] | T cell proliferation ([3H]-thymidine) costimulated by immobilized B7-H2Ig with anti-CD3 mAb [4]
1 | wild-type ICOSIg (extracellular domain of human ICOS fused to the CH2-CH3 portion of human IgG1) (Fc fusion, Made in COS cells; used as concentrated supernatant or purified; also called human ICOSIg; not shown: CH2-CH3 portion of human IgG1) EINGSANYEMFIFHNGGVQILCKYPDIVQQFKMQLLKGGQILCDLTKTKGSGNTVSIKSLKFCHSQLSNNSVSFFLYNLDHSHANYYFCNLSIFDPPPFKVTLTGGYLHIYESQLCCQLK |  | 100 % of wild type ICOSIg |  | 
2 | ICOSIg mutant Gln49Ser (Fc fusion, Built on ICOSIg cDNA; not shown: CH2-CH3 portion of human IgG1) EINGSANYEMFIFHNGGVQILCKYPDIVSQFKMQLLKGGQILCDLTKTKGSGNTVSIKSLKFCHSQLSNNSVSFFLYNLDHSHANYYFCNLSIFDPPPFKVTLTGGYLHIYESQLCCQLK |  | 33 % of wild type ICOSIg |  | 
3 | ICOSIg homologue replacement mutant RP49-52 (Fc fusion, not shown: CH2-CH3 portion of human IgG1) EINGSANYEMFIFHNGGVQILCKYPDIVREFRMQLLKGGQILCDLTKTKGSGNTVSIKSLKFCHSQLSNNSVSFFLYNLDHSHANYYFCNLSIFDPPPFKVTLTGGYLHIYESQLCCQLK |  | 9 % of wild type ICOSIg |  | 
4 | ICOSIg mutant Gln50Ser (Fc fusion, Built on ICOSIg cDNA; not shown: CH2-CH3 portion of human IgG1) EINGSANYEMFIFHNGGVQILCKYPDIVQSFKMQLLKGGQILCDLTKTKGSGNTVSIKSLKFCHSQLSNNSVSFFLYNLDHSHANYYFCNLSIFDPPPFKVTLTGGYLHIYESQLCCQLK |  | 6 % of wild type ICOSIg |  | 
5 | ICOSIg mutant Asp115Ser (Fc fusion, Built on ICOSIg cDNA; not shown: CH2-CH3 portion of human IgG1) EINGSANYEMFIFHNGGVQILCKYPDIVQQFKMQLLKGGQILCDLTKTKGSGNTVSIKSLKFCHSQLSNNSVSFFLYNLDHSHANYYFCNLSIFSPPPFKVTLTGGYLHIYESQLCCQLK |  | < 0.1 % of wild type ICOSIg | no binding | 
6 | ICOSIg mutant Lys52Ser (Fc fusion, Built on ICOSIg cDNA; not shown: CH2-CH3 portion of human IgG1) EINGSANYEMFIFHNGGVQILCKYPDIVQQFSMQLLKGGQILCDLTKTKGSGNTVSIKSLKFCHSQLSNNSVSFFLYNLDHSHANYYFCNLSIFDPPPFKVTLTGGYLHIYESQLCCQLK |  | 200 % of wild type ICOSIg |  | 
7 | ICOSIg mutant Asp64Ser (Fc fusion, Built on ICOSIg cDNA; not shown: CH2-CH3 portion of human IgG1) EINGSANYEMFIFHNGGVQILCKYPDIVQQFKMQLLKGGQILCSLTKTKGSGNTVSIKSLKFCHSQLSNNSVSFFLYNLDHSHANYYFCNLSIFDPPPFKVTLTGGYLHIYESQLCCQLK |  | 6 % of wild type ICOSIg |  | 

Other lines, results leading:

Row | binding result [1] | B7-H2 Binding (specific binding activity as percentage of ICOSIg) [2] | binding result [3] | T cell proliferation ([3H]-thymidine) costimulated by immobilized B7-H2Ig with anti-CD3 mAb [4] | Binder
8 | no binding | < 0.1 % of wild type ICOSIg |  |  | ICOSIg homologue replacement mutant RP64-78 (Fc fusion, not shown: CH2-CH3 portion of human IgG1) EINGSANYEMFIFHNGGVQILCKYPDIVQQFKMQLLKGGQILCVVYGNYSQQLQVYSKSLKFCHSQLSNNSVSFFLYNLDHSHANYYFCNLSIFDPPPFKVTLTGGYLHIYESQLCCQLK
9 |  | 3 % of wild type ICOSIg |  |  | ICOSIg mutant Lys69Ser (Fc fusion, Built on ICOSIg cDNA; not shown: CH2-CH3 portion of human IgG1) EINGSANYEMFIFHNGGVQILCKYPDIVQQFKMQLLKGGQILCDLTKTSGSGNTVSIKSLKFCHSQLSNNSVSFFLYNLDHSHANYYFCNLSIFDPPPFKVTLTGGYLHIYESQLCCQLK
10 |  | < 0.1 % of wild type ICOSIg | no binding |  | ICOSIg mutant Phe114Ser (Fc fusion, Built on ICOSIg cDNA; not shown: CH2-CH3 portion of human IgG1) EINGSANYEMFIFHNGGVQILCKYPDIVQQFKMQLLKGGQILCDLTKTKGSGNTVSIKSLKFCHSQLSNNSVSFFLYNLDHSHANYYFCNLSISDPPPFKVTLTGGYLHIYESQLCCQLK
11 |  | < 0.1 % of wild type ICOSIg | no binding |  | ICOSIg mutant Lys67Ser (Fc fusion, Built on ICOSIg cDNA; not shown: CH2-CH3 portion of human IgG1) EINGSANYEMFIFHNGGVQILCKYPDIVQQFKMQLLKGGQILCDLTSTKGSGNTVSIKSLKFCHSQLSNNSVSFFLYNLDHSHANYYFCNLSIFDPPPFKVTLTGGYLHIYESQLCCQLK
12 |  | 300 % of wild type ICOSIg |  | ~10 fold (against wild-type ICOSIg) | ICOSIg mutant Ser76Glu (Fc fusion, Built on ICOSIg cDNA; also called Ser76Glu mutant; Ser76Glu protein; not shown: CH2-CH3 portion of human IgG1) EINGSANYEMFIFHNGGVQILCKYPDIVQQFKMQLLKGGQILCDLTKTKGSGNTVEIKSLKFCHSQLSNNSVSFFLYNLDHSHANYYFCNLSIFDPPPFKVTLTGGYLHIYESQLCCQLK
13 |  | < 0.1 % of wild type ICOSIg | no binding |  | ICOSIg mutant Phe51Ser (Fc fusion, Built on ICOSIg cDNA; not shown: CH2-CH3 portion of human IgG1) EINGSANYEMFIFHNGGVQILCKYPDIVQQSKMQLLKGGQILCDLTKTKGSGNTVSIKSLKFCHSQLSNNSVSFFLYNLDHSHANYYFCNLSIFDPPPFKVTLTGGYLHIYESQLCCQLK
14 |  | < 0.1 % of wild type ICOSIg | no binding |  | ICOSIg mutant Phe119Ser (Fc fusion, Built on ICOSIg cDNA; not shown: CH2-CH3 portion of human IgG1) EINGSANYEMFIFHNGGVQILCKYPDIVQQFKMQLLKGGQILCDLTKTKGSGNTVSIKSLKFCHSQLSNNSVSFFLYNLDHSHANYYFCNLSIFDPPPSKVTLTGGYLHIYESQLCCQLK
15 |  | < 0.1 % of wild type ICOSIg | no binding |  | ICOSIg mutant Pro117Ser (Fc fusion, Built on ICOSIg cDNA; also called Pro117Ser mutant; not shown: CH2-CH3 portion of human IgG1) EINGSANYEMFIFHNGGVQILCKYPDIVQQFKMQLLKGGQILCDLTKTKGSGNTVSIKSLKFCHSQLSNNSVSFFLYNLDHSHANYYFCNLSIFDPSPFKVTLTGGYLHIYESQLCCQLK
